Results taken from article PMC10397247.
Like-named read-outs stand apart in the source and are kept apart here.

How the values were obtained:
Test in all cases: two-hybrid library CCmax;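 further: natural log of median RNA to DNA barcode read ratio; higher means stronger binding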
4H4038-AA = biological target: T1, 4H4038-AA; conditions: mean of both orientations
T1 chain: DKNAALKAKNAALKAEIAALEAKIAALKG

4H481-AA = biological target: T2, 4H481-AA; conditions: mean of both orientations
T2 chain: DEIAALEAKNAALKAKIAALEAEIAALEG

4H3905-AA = biological target: T3, 4H3905-AA; conditions: mean of both orientations
T3 chain: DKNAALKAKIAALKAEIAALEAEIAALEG

4H390-AA = biological target: T4, 4H390-AA; conditions: mean of both orientations
T4 chain: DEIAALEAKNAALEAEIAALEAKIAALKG

4H_BCR = biological target: T5, 4H_BCR; conditions: mean of both orientations
T5 chain: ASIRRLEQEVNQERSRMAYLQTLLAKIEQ

O13-AA = biological target: T6, O13-AA; conditions: mean of both orientations
T6 chain: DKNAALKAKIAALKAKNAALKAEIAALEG

4H87-AA = biological target: T7, 4H87-AA; conditions: mean of both orientations
T7 chain: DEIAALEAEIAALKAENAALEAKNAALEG

4H662-AA = biological target: T8, 4H662-AA; conditions: mean of both orientations
T8 chain: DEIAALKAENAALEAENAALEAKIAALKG

O11-AA = biological target: T9, O11-AA; conditions: mean of both orientations
T9 chain: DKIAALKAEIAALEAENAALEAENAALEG

GCN2_T = biological target: GCN2_T
4H369-AA = biological target: T10, 4H369-AA; conditions: mean of both orientations
T10 chain: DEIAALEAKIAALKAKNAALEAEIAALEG

4H3922-AA = biological target: T11, 4H3922-AA; conditions: mean of both orientations
T11 chain: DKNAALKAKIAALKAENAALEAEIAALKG

4H3664-AA = biological target: T12, 4H3664-AA; conditions: mean of both orientations
T12 chain: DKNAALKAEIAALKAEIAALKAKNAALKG

4H3625-AA = biological target: T13, 4H3625-AA
T13 chain: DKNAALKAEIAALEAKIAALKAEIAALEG

4H451-AA = biological target: T14, 4H451-AA; conditions: mean of both orientations
T14 chain: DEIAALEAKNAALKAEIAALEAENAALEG

4H775-AA = biological target: T15, 4H775-AA; conditions: mean of both orientations
T15 chain: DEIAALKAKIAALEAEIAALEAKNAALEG

4H4033-AA = biological target: T16, 4H4033-AA; conditions: mean of both orientations
T16 chain: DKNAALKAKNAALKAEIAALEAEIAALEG

4H_GCN4 = conditions: mean of both orientations
4H816-AA = biological target: T17, 4H816-AA; conditions: mean of both orientations
T17 chain: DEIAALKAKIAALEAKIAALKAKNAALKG

4H3940-AA = biological target: T18, 4H3940-AA; conditions: mean of both orientations
T18 chain: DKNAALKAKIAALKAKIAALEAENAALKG

4H_APH = biological target: T19, 4H_APH; conditions: mean of both orientations
T19 chain: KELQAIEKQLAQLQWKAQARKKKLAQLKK

O14-AA = biological target: T20, O14-AA; conditions: mean of both orientations
T20 chain: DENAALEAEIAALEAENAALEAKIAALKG

4H43-AA = biological target: T21, 4H43-AA; conditions: mean of both orientations
T21 chain: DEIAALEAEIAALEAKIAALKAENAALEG

4H55-AA = biological target: T22, 4H55-AA; conditions: mean of both orientations
T22 chain: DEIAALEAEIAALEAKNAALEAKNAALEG

4H510-AA = biological target: T23, 4H510-AA; conditions: mean of both orientations
T23 chain: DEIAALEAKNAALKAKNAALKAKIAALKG

4H384-AA = biological target: T24, 4H384-AA; conditions: mean of both orientations
T24 chain: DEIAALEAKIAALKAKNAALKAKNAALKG

zCON9_D = biological target: T25, zCON9_D
T25 chain: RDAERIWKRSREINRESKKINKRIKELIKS

zCON9_B = biological target: T26, zCON9_B
T26 chain: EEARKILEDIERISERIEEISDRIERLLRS

4H_GCN4, sequence (chain, as listed by the source): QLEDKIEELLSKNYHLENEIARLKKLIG

## DKNAALKAEIAALEAKIAALKAEIAALEG [4H3625-AA]
4H4038-AA
  interaction score: 1.61
4H481-AA
  interaction score: -0.502
4H3905-AA
  interaction score: 2.29
4H390-AA
  interaction score: 1.54
4H_BCR
  interaction score: -1.17
O13-AA
  interaction score: -1.47
4H87-AA
  interaction score: -0.904
4H662-AA
  interaction score: -1.3
O11-AA
  interaction score: -1.53
GCN2_T
  interaction score: -0.674
4H369-AA
  interaction score: -0.703
4H3922-AA
  interaction score: 0.185
4H3664-AA
  interaction score: -0.0768
4H3625-AA
  interaction score: 2.27
4H451-AA
  interaction score: -1.64
4H775-AA
  interaction score: 0.881
4H4033-AA
  interaction score: -0.401
4H_GCN4
  interaction score: -0.702
4H816-AA
  interaction score: 1.38
4H3940-AA
  interaction score: -0.199
4H_APH
  interaction score: -1.59
O14-AA
  interaction score: 1.44
4H43-AA
  interaction score: 1.85
4H55-AA
  interaction score: -1.29
4H510-AA
  interaction score: -1.93
4H384-AA
  interaction score: -1.24

## PKKEAEELAEESEELHDRSEKLHERAEQ [zCON9_A]
zCON9_D
  interaction score: -2.12
zCON9_B
  interaction score: -2.01

## EEARKILEDIERISERIEEISDRIERLLRS [zCON9_B]
zCON9_D; mean of both orientations
  interaction score: -1.44
zCON9_B
  interaction score: 2
